Assay: soluble on expression in E. coli; label from the status in PepcDB or PDB records

Sequence | soluble on expression in E. coli
MNRREANALDRYLTEPTEKPHKETYEDDPVDTTDYFGNEIADEDGVFEITFAMKCLYTGQPVLTCKKIATQDTIVDLIEELGEENVYLIEYVSSGKRYKEGLLND | not soluble
MKEKEHQSIEWKESWQDEYLKWICGYANAYGGTIYIGTDDDGNVVGIDNARDLLERIPNKITDTMGIIVDVNLLYKGELEYLQIIVDKYPSLISFRGKYYYRSGSTMREITGKELERALLKTQGRTWDGVPLPKLTVADLKQDAIQLFKDKAVKRGRLTKEEVSVEDTILMDNLHLIDEDGYLIRAAMLAFYKDPEKWVTGSYIKIGYFGKSDSDLVYQDEVHGPLIEQVDKTVDLVYTKYMKALIDYEGVQRIEQFMFHKDAFREILLNAVVHKDYSSCNPIQISVYEDKIYIWNDGEMPPNLDSTDKLFMKHSSKPYNPKLANVFFKSGMIEAWGRGFEKIREACALYDGPLPEYEINEAGIMVLCKACDKYLGLLRNDGQHHGQCDQEGDHDEEQDIMRQIIAFCMEPKTASEIMQKFNLERSYFRRHYLNKMLKTGKLQRTEPDKPKSKNQKYYS | not soluble
SLIDNPHAQDYWPNRGQMDVQGLAVKYTEAGRAVLSDISFSVEGGLSMGLLGRTGSGKSTLLSALLRLASTDGEISIDGISWNSVPLEKWRKAFGVVPQKVFILTGTFRMNLDPHGRYSDEELWRVADQVGLKSVIEQFPDRLDFQLENGGSVLSHGHKQLMCLARSILSKARILLLDEPSAYLDTITLQVLRKTLKHAFSDCTVILSEAKVEPLLECDSFLVIEGSSVKSYDSIQKLLNEMSDLKQAVSAAD | not soluble
MGSDKIHHHHHHMVKFIHCSDLHLDSPFKSKSHISPKIFEDVQKSAYESFKNIVDIALQQDVDFVIIAGDLFDSENRTLRAEIFLKQQFERLQNEQIFVYVCHGNHDPLSSKISSNWPDNVSVFSNKVETYEAITKSGETIYIHGFSYENRASYENKIDEYPSSQGQKGIHIGVLHGTYSKSSVNERYTEFILEDLNSKLYHYWALGHIHERQQLSDMPVINYSGNIQGRHFNEQGEKGCLLIEGDHLKLKTKFYPTQYIRFEEATIETDKTSKQGLYEVIQNFKEQVREEGKAFYRLTLVINSETLISPQDLLQVEEMITDYEENENQFVYIDELKIQYAQNDESPLVNEFSAELLVDQTVFDKAMSDLYLNPRASKFLDDYGTFDHTALVNRAEEILKAEMRGEQNDN | not soluble
MGHHHHHHSHLFQGDDAKEKIAVVDETNELYPVFSKQLKAVDTDGDLDVKLSKQSEDEVTKQVKDESLDGMLIIKRDEKGTISGTYKALTISDESTYQTLQQALTQTKTAVGTAELGVSQETISSLYAPVTVGQKALKEGAKSEEELGQT | not soluble
MFSVRRYRHKRNSLNIDTREITLEPADNARLLSLCGPFDDNIKQLERRLGIEINRRDNHFKLTGRPICVTAATDILRSLYVDTAPMRGQTQDIEPEQIHLAIKEARVLEQSAESVPDYGKAINIKTKRGVIKPRTPNQAQYIANILDHDITFGVGPAGTGKTYLAVAAAVDALERQEIRRILLTRPAVEAGEKLGFLPGDLSQKVDPYLRPLYDALFEMLGFEKVEKLIERNVIEVAPLAYMRGRTLNDAFIILDESQNTTIEQMKMFLTRIGFNSKAVITGDVTQIDLPRNTKSGLRHAIEVLAEVDEISFNFFHSEDVVRHPVVARIVNAYEAWEEAEQKRKAALAAERKREAQEQEQK | not soluble
MSANLVTPKWGYIGKMPAKGDFVKDGISPEFANRWHDWQQAVIAVSKEQLGDTWNDYFLTAPVWHFALDVSYMDDATYIGSMIPSVDACGRYFFFTVVRAVKGKAAQYWAQSGWTEDSQTLALSVLDDEFVFDVWHRSMQEKCELVSEVSICNEEMALLYQSPISTVFSFSTEAKQNTLLNHLIESQQRKPCFWWTEGSTHIESCMFVSTGLPSIGQFSAMLDGRWQMWSW | not soluble
MGHHHHHHSHLQHETQELASKRVDIQNKRFYLDVKQNAKGRFLKIAEVGAGGNKSRLTLSMSVAVEFRDYLGDFIEHYAQLGPSQPPDLAQAQDEPRRALKSEFLVRENRKYYMDLKENQRGRFLRIRQTVNRGPGLGSTQGQTIALPAQGLIEFRDALAKLIDDYGVEEEPAELPEGTSLTVDNKRFFFDVGSNKYGVFMRVSEVKPTYRNSITVPYKVWAKFGHTFCKYSEEMKKIQEK | soluble
MSLRWQWRIYEEPLQEPLTTAQGVWRSRSGIYLRLEDEQGQVGYGEIAPLPGWGSETLNADIALCQQLPGHLTPEIMATIPEALPAAQFGFATAWQSVGRLPYRVRPWPICALLGSGQAALEQWQQSWQRGQTTFKWKVGVMSPEEEQAILKALLAALPPGAKLRLDANGSWDRATANRWFAWLDRHGNGKIEYVEQPLPPDQWQALLSLAQTVTTAIALDESVVSAAEVQRWVDRGWPGFFVIKTALFGDPDSLSLLLRRGLEPQRLVFSSALEGAIARTAIFHLLETWQPCHALGFGVDRWRSAPLLTTLTAYERLWERLDQGHHHHHH | soluble
MGSDKIHHHHHHMYKWHNVFQPIFQIDQNMNHKVDHYEMLLRDENDQFPNHDFFRIISTEEDNQKWIQIEEKSLKNLFSLHPNIHVNLNVEPIQFAYPSVWEFLRRIYDKYGQKVIIEITERQLQAGNIGNRQFDCAFQRINDIGFKIALDDVDSGSNSFSFVNHHVNQISVIKLSLLIFDNVSSGTTISFIDSWAAFAKEKHLDLVIEAVRSKEIAKRFAGNKHIFQQGYYWEKALKLEDIY | not soluble
MPAPLTFARLTQVDPNLITAHMRDPRLAIHMPLMPDSWSDAQTVSFVQSKEACWDRDGLGHWAFLHQDRYVGWGGFQREGEEWDFGLVLCPAHFGLGLPIARKALDFAHADPRIPFVTFLLPPSRQHLGALRRLGAQPLGETDHAGHRFLKFRLDTA | not soluble
MASKLLRAVILGPPGSGKGTVCQRIAQNFGLQHLSSGHFLRENIKASTEVGEMAKQYIEKSLLVPDHVITRLMMSELENRRGQHWLLDGFPRTLGQAEALDKICEVDLVISLNIPFETLKDRLSRRWIHPPSGRVYNLDFNPPHVHGIDDVTGEPLVQQEDDKPEAVAARPRQYKDVAKPVIELYKSRGVLHQFSGTETNKIWPYVYTLFSNKITPIQSKEAYLEHHHHHH | soluble
MIMASSAAASISMITLRNLSRNHQSHQSTFLGFSRSFHNQRISSNSPGLSTRARSTTSSTGGFFRTICSSSSNDYSRPTKIQELNVYEFNEGDRNSPAVLKLGKKPDQLCLGDLVPFTNKLYTGDLTKRIGITAGLCVLIQHVPEKKGDRFEASYSFYFGDYGHISVQGPYLTYEDTFLAITGGSGVFEGAYGQVKLRQLVYPTKLFYTFYLKGVAADLPVELTGKHVEPSKEVKPAAEAQATQPGATIANFTN | soluble
MAYSKIRQPKLSDVIEQQLEFLILEGTLRPGEKLPPERELAKQFDVSRPSLREAIQRLEAKGLLLRRQGGGTFVQSSLWQSFSDPLVELLSDHPESQFDLLETRHALEGIAAYYAALRSTDEDKDRIRELHHAIELAQESGDLDAESEAVLQYQIAVTEAAHNVVLLHLLRCMEPMLAQNVRQNFELLYARREMLPLVSTHRTRIFEAIMAGKPEEAREASHRHLAFIEEIMLDRSREESRRERALRRLEQRKN | not soluble
MNKHQKPVLTGQRFKTRKRDEKEKFEPTVFRDTLVQGLNEAGDDLEAVAKFLDSTGSRLDYRRYADTLFDILVAGSMLAPGGTRIDDGDKTKMTNHCVFSANEDHETIRNYAQVFNKLIRRYKYLEKAFEDEMKKLLLFLKAFSEAEQTKLAMLSGILLGNGTLPATILTSLFTDSLVKEGIAASFAVKLFKAWMAEKDANSVTSSLRKANLDKRLLELFPVNRQSVDHFAKYFTDAGLKELSDFLRVQQSLGTRKELQKELQERLSQECPIKEVVLYVKEEMKRNDLPETAVIGLLWTCIMNAVEWNKKEELVAEQALKHLKQYAPLLAVFSSQGQSELVLLQKVQEYCYDNIHFMKAFQKIVVLFYKADVLSEEAILKWYKEAHAAKGKSVFLDQMKKFVEWLQNAEEESESEGEES | soluble
MVFMEENKKYRILGTLLYYVLRIISSTLKIEIVNKYGIDMQRPHIYGFWHSKLFITPIFFRNVEKKLAMSSPTKDGELISVPLEKMGYILVRGSSDKNQISSTISLLKYLKKGYSIGTPLDGPKGPKEKPKKGLLYLSQKTSVPLVPVGISYSKKWILKKTWDQFEIPKPFSKVKIFLGEPILIDDDEDLDKYTEIVKNGINSLNNQIEFLEHHHHHH | not soluble
